# Results taken from patent US20060009520A1, “Retinoid-based methods for altering macrophage cholesterol” (priority 2004, published 2006).
# T1: RARβ without RXRα (Homo sapiens, UniProt P10826 P10826:1-455)
# T1 sequence: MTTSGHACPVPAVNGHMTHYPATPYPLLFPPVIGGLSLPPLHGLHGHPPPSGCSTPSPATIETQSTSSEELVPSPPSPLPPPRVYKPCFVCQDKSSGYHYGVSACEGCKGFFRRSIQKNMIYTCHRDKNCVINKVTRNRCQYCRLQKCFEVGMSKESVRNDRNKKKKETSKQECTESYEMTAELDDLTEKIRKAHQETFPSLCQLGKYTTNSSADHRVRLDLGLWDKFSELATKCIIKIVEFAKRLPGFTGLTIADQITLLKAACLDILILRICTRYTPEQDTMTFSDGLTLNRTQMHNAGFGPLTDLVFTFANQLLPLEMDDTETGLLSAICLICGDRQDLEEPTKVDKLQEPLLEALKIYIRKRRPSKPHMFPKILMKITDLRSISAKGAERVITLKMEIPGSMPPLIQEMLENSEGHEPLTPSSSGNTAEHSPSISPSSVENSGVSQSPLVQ
# T2: RARα without RXRα (Homo sapiens, UniProt P10276 P10276:1-462)
# T2 sequence: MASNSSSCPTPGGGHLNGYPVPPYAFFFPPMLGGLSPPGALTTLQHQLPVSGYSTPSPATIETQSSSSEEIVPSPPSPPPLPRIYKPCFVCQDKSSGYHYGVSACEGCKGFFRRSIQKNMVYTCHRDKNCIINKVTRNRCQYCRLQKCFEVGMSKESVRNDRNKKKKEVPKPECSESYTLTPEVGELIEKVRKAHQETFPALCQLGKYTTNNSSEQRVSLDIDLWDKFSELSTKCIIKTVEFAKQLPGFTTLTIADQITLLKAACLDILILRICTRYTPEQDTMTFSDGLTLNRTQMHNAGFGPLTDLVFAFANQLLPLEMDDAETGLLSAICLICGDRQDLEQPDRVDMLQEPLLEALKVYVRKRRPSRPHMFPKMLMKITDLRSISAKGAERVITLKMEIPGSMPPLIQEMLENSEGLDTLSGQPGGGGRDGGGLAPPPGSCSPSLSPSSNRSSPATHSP
# T3: RARγ without RXRα (Homo sapiens, UniProt P13631 P13631:1-454)
# T3 sequence: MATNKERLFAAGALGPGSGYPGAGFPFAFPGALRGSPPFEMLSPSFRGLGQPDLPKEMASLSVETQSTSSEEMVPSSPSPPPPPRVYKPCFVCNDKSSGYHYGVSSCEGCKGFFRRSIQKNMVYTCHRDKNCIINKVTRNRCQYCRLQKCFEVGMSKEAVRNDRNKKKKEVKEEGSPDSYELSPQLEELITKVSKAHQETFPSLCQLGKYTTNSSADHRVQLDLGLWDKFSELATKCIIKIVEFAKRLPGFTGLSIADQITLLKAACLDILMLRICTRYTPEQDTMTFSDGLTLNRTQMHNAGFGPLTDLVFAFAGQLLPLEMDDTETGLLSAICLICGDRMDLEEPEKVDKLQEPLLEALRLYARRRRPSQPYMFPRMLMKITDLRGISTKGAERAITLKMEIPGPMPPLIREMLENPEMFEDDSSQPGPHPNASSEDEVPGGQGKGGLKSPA
# Assays:
# apoCIII = conditions: transcriptional level; cited from earlier work
# [1] = test system: ABCA1-mediated cholesterol efflux from mouse peritoneal macrophages; assay: Cholesterol efflux to apoA-I from cholesterol-loaded macrophages; conditions: 1 and 5 μM ATRA
# RARα/RXRα heterodimer [2] = biological target: T4, RARα/RXRα heterodimer (Homo sapiens, UniProt P10276;P19793 P10276:1-462,P19793:1-462); assay: EMSA; not shown; conditions: tags: TNT wheat germ; label: 32P
# From the text: (§1) RARs and LXRα and RXRα proteins were in vitro translated by using the TNT-coupled wheat germ extract systems (Promega). Double-strand oligonucleotides corresponding to the wild-type ABCA1 DR4 element 5′-[…]-3′ and the mutated sequence 5′-[…]-3′ were used, and electrophoresis mobility shift assays (EMSAs) were done with ³²P-labeled probes as described previously (6). For competition experiments, a 30-fold molar excess of cold unlabeled competitor DNA relative to labeled DNA was used. […] The oligonucleotides 5′-[…]-3′ and 5′-[…]-3′ were, respectively, used in EMSA analysis of DR4 elements a and b of the murine SREBP-1c promoter.
# RARβ/RXRα heterodimer [3] = biological target: T5, RARβ/RXRα heterodimer (Homo sapiens, UniProt P10826;P19793 P10826:1-455,P19793:1-462); assay: EMSA; not shown; conditions: tags: TNT wheat germ; label: 32P
# From the text: as §1
# RARγ/RXRα heterodimer [4] = biological target: T6, RARγ/RXRα heterodimer (Homo sapiens, UniProt P13631;P19793 P13631:1-454,P19793:1-462); assay: EMSA; neither bound nor competed with ABCA1 DR4; conditions: tags: TNT wheat germ; pCMX-hRARγ, pCMX-hRXRα; label: 32P
# Description: In vitro-translated RXRα and RARγ were incubated with ³²P-labeled hABCA1 DR4 element. […] (Left panel) RXRα, RARγ, and LXRβ were separately produced by using an in vitro transcription-translation wheat germ extract systems and used in EMSAs with a ³²P-labeled mouse SREBP-1c DR4b element as a probe. […] (Right panel) EMSA analysis as described in panel D but with a ³²P-labeled human ABCA1 DR4 element as a probe.
# RARγ/RXRα heterodimer [5] = biological target: T6, RARγ/RXRα heterodimer; assay: EMSA; neither bound nor competed with ABCA1 DR4; conditions: tags: TNT wheat germ; pCMX-hRARγ, pCMX-hRXRα; label: 32P; remark: listed apart in the source
# From the text: as §1
# RARβ without RXRα = biological target: T1, RARβ without RXRα; assay: EMSA; complex only in presence of RXRα; data not shown; conditions: tags: TNT wheat germ; label: 32P
# From the text: as §1
# (§2) To further assess the possibility of a direct interaction between RARγ and the human ABCA1 promoter, a gel shift assay by using oligonucleotides consisting of the DR4 element was carried out. […] It was also determined whether RARα and RARβ could bind the ABCA1 DR4 element.
# RARα without RXRα = biological target: T2, RARα without RXRα; assay: as above; conditions: tags: TNT wheat germ; label: 32P
# From the text: as §1, §2
# RARγ without RXRα = biological target: T3, RARγ without RXRα; assay: as above; conditions: tags: TNT wheat germ; label: 32P
# From the text: as §1, §2
# RARα/RXRα heterodimer [6] = biological target: T4, RARα/RXRα heterodimer; assay: EMSA; data not shown; conditions: tags: TNT wheat germ; label: 32P
# From the text: as §1, §2
# RARβ/RXRα heterodimer [7] = biological target: T5, RARβ/RXRα heterodimer; assay: EMSA; data not shown; conditions: tags: TNT wheat germ; label: 32P
# From the text: as §1, §2
# RARγ/RXRα heterodimer [8] = biological target: T6, RARγ/RXRα heterodimer; assay: EMSA; supershift with anti-RXRα and anti-RARγ; competed by 30-fold cold wild-type DR4; conditions: tags: TNT wheat germ; pCMX-hRARγ, pCMX-hRXRα; label: 32P
# From the text: as §1, §2
# T4 sequence (P19793 whole entry, one chain of several): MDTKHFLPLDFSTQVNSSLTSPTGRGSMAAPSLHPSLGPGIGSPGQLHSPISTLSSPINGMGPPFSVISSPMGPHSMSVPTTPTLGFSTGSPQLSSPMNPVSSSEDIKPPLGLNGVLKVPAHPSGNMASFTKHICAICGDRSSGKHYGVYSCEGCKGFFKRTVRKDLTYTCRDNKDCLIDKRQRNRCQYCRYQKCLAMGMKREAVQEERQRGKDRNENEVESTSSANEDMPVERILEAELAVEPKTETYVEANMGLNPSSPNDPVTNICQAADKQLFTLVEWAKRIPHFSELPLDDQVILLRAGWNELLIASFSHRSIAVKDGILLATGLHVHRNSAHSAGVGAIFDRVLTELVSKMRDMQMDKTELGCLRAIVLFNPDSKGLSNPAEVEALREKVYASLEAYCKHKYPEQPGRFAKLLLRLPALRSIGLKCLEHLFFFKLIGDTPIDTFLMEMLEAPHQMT
# T6 sequence (P19793 whole entry, one chain of several): as above
# T5 sequence (P19793 whole entry, one chain of several): as above
molecule,measurement,setting,value
"CC1=C(/C=C/C(C)=C/C=C/C(C)=C\C(=O)O)C(C)(C)CCC1 [13-cRA, isotretinoin]",hepatic apoCIII expression,apoCIII,increases hepatic apoCIII expression
O=S(=O)(c1ccccc1)N(CC(F)(F)F)c1ccc(C(O)(C(F)(F)F)C(F)(F)F)cc1 [TO-901317],"increase in cholesterol efflux to apoA-I, ATRA compared with TO-901317",[1],comparable increase in cholesterol efflux to apoA-I
SREBP-1c DR4 element b (dsDNA) DNA 1: ACTGGGACGCCCGCTAGTAACCCCGGC DNA 2: GCCGGGGTTACTAGCGGGCGTCCCAGT,binding result,RARα/RXRα heterodimer [2],no binding
same,binding result,RARβ/RXRα heterodimer [3],no binding
same,binding result,RARγ/RXRα heterodimer [4],no binding
SREBP-1c DR4 element a (dsDNA) DNA 1: ACTGCAGTGACCGCCAGTAACCCCAGC DNA 2: GCTGGGGTTACTGGCGGTCACTGCAGT,binding result,RARγ/RXRα heterodimer [5],no binding
same,binding result,RARα/RXRα heterodimer [2],no binding
same,binding result,RARβ/RXRα heterodimer [3],no binding
ABCA1 DR4 element (dsDNA) DNA 1: ACTGGGCTTTGACCGATAGTAACCTCTGCGCTCG DNA 2: CGAGCGCAGAGGTTACTATCGGTCAAAGCCCAGT,binding result,RARβ without RXRα,no binding
same,binding result,RARα without RXRα,no binding
same,binding result,RARγ without RXRα,no binding
same,binding result,RARα/RXRα heterodimer [6],binds
same,binding result,RARβ/RXRα heterodimer [7],binds
same,binding result,RARγ/RXRα heterodimer [8],binds
